Data: patent US20230287598A1 (TAURUS BIOSCIENCES, published 2023)

T1: CXCR1 (UniProt P25024 1-350, limits assumed)
T1 construct: whole, on cells; DiscoveRx PathHunter cell line; any reporter tag on the receptor is not described; also called CXCR1 receptor; CXCR1-U2OS
T1 sequence (looked up): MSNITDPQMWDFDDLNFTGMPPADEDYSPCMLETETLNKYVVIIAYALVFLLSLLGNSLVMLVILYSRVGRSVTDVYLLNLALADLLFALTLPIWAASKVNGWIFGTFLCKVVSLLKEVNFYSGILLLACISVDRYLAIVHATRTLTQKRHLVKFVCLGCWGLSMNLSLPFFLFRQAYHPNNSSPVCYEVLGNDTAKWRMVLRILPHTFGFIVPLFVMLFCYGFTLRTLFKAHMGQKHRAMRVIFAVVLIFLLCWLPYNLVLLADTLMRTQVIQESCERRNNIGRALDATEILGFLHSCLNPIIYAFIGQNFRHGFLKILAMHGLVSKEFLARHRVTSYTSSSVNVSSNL

B1: BLV1H12 IgG (antibody)
VH: QVQLRESGPSLVKPSQTLSLTCTASGFSLSDKAVGWVRQAPGKALEWLGSIDTGGNTGYNPGLKSRLSITKDNSKSQVSLSVSSVTTEDSATYYCTSVHQETKKYQSCPDGYRERSDCSNRPACGTSDCCRVSVFGNCLTTLPVSYSYTYNYEWHVDVWGQGLLVTVSS
light: not shown
notes: also called ULcowV
B2: BLV1H12 GGS3:3 Moka (antibody)
VH: QVQLRESGPSLVKPSQTLSLTCTASGFSLSDKAVGWVRQAPGKALEWLGSIDTGGNTGYNPGLKSRLSITKDNSKSQVSLSVSSVTTEDSATYYCTSVHQETKKYQSGGSGGSGGSGINVKCSLPQQCIKPCKDAGMRFGKCMNKKCRCYSGGSGGSGGSSYTYNYEWHVDVWGQGLLVTVSSAS
light: not shown
B3: BLV1H12 GLLV 3xG4S ShK (antibody)
VH: QVQLRESGPSLVKPSQTLSLTCTASGFSLSDKAVGWVRQAPGKALEWLGSIDTGGNTGYNPGLKSRLSITKDNSKSQVSLSVSSVTTEDSATYYCTSVHQETKKYQSGGGGSGGGGSGGGGSGGRSCIDTIPKSRCTAFQCKHSMKYRLSFCRKTCGTCGGGGSGGGGSGGGGSSYTYNYEWHVDVWGQGLLVTVSSAS
light: not shown
B4: VH1-46+CDR3-IL8 IgG (antibody)
VH: QVQLVQSGAEVKKPGASVKVSCKASGYTFTSYYMHWVRQAPGQGLEWMGIINPSGGSTSYAQKFQGRVTMTRDTSTSTVYMELSSLRSEDTAVYYCTSVHQETKKYQSPRSAKELRCQCIKTYSKPFHPKFIKELRVIESGPHCANTEIIVKLSDGRELCLDPKENWVQRVVEKFLKRAENSGSGSYTYNYEWHVDVWGQGLLVTVSSAS
light: not shown
notes: also called VH1-46 BLVCDR3IL8
B5: VH1-24+CDR3-IL8 IgG (antibody)
VH: QVQLVQSGAEVKKPGASVKVSCKVSGYTLTELSMHWVRQAPGKGLEWMGGFDPEDGETIYAQKFQGRVTMTEDTSTDTAYMELSSLRSEDTAVYYCTSVHQETKKYQSPRSAKELRCQCIKTYSKPFHPKFIKELRVIESGPHCANTEIIVKLSDGRELCLDPKENWVQRVVEKFLKRAENSGSGSYTYNYEWHVDVWGQGLLVTVSSAS
light: not shown
notes: also called VH1-24 BLVCDR3IL8

What was measured:
[1] = target: T1, CXCR1; assay: flow cytometry, CXCR1-U2OS / parental U2OS
[2] = target: T1, CXCR1; assay: flow cytometry on CXCR1-U2OS cells (parental U2OS: 5)
[3] = target: T1, CXCR1; assay: flow cytometry, median fluorescence CXCR1-U2OS / parental U2OS
[4] = target: Kv1.3 (human (T-cells from human blood donors), UniProt P22001 1-575); assay: cell-based or functional assay
Chain of Kv1.3 (P22001 whole entry): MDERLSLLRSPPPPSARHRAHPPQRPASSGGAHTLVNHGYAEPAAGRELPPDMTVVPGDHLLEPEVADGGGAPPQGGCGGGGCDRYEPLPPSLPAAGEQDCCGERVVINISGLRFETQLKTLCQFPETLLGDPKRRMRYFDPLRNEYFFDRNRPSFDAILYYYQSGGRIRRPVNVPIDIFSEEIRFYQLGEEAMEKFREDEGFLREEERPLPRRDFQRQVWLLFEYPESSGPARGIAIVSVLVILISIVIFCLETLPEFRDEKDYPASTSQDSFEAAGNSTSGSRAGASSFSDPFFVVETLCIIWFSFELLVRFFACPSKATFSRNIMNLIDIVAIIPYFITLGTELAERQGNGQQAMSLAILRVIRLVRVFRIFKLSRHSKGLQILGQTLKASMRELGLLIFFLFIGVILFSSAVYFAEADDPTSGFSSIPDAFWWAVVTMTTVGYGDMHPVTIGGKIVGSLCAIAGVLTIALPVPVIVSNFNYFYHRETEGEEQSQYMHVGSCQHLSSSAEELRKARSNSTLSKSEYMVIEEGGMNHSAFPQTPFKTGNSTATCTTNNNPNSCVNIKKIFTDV

| Binder | FACS CXCR1/Parental Ratio [1] | median AFU on CXCR1-U2OS [2] [AFU] | Ratio of CXCR1/Parental [3] | EC50 (nM), inhibition of T-cell activation, IL-2 secretion, Donor 1 [4] [nM] | EC50 (nM), inhibition of T-cell activation, IL-2 secretion, Donor 2 [4] [nM] | EC50 (nM), inhibition of T-cell activation, TNFα secretion, Donor 1 [4] [nM] | EC50 (nM), inhibition of T-cell activation, TNFα secretion, Donor 2 [4] [nM] |
| --- | --- | --- | --- | --- | --- | --- | --- |
| B1 | 1.9 | 9 | 1.9 | – | – | – | – |
| B2 | – | – | – | 14.4 | 40.2 | 19.3 | 38.2 |
| B3 | – | – | – | 0.1 | 0.03 | 6.5 | 0.2 |
| B4 | – | 6 | – | – | – | – | – |
| B5 | – | 23 | – | – | – | – | – |
